Experimental data: patent US20040175804A1, “Process for preparing dideoxyinosine using adenosine deaminase enzyme” (priority 2003, published 2004)

Columns and labels:
[1] = ADA activity assay (1 U = 1 μmol of ddA deaminated/min at 37° C.); assay type: biochemical; conditions: 1 unit = 1 μmol of ddA deaminated/min at 37° C.; on IPS-400 support
Procedure: The enzyme so derived should be assayed for activity. As used herein, a unit (U) of enzymatic activity is that amount of enzyme which will deaminate 1 μmol of ddA per minute at 37° C. Desirably, the final enzyme titer is from about 650-750 U/ml. The assay may be performed by adding enzyme to a 2.4% solution of ddA at 37° C. The reaction is allowed to proceed for 15 min while gently stirring. Tetrahydrofuran is added to stop the reaction. A sample is taken and run on HPLC to determine the amount of ddI formed.
The immobilized enzyme assays show an enzymatic activity of ˜100 U/g. (1 unit=1 μmol of ddA deaminated/min at 37° C.).

[2] = Conversion of a 52-60 g/L solution of ddA in water to ddI by adenosine deaminase; assay type: biochemical; conditions: for Conversion of ddA to ddI: 40 U/g ddA, 52-60 g/L ddA in water
Procedure: 100.0 g ddA is added to 1900 ml of water at 30° C. (mother liquor from previous runs can also be used). After the ddA has been added (complete dissolution is not necessary), 4000 U of immobilized rec human adenosine deaminase is added. […] The reaction is complete (approximately 5-8 hours) when the level of residual ddA is less than or equal to 1% of the original amount of ddA added. The enzyme solids are removed by filtration (20-30 μm media) and the enzyme cake is washed with 100 ml water. The used enzyme is held as a wet cake at 0-5° C. (for up to 72 hours) and can be recycled to another batch.
Microbial ADA from recombinant E. coli was partially purified and isolated as an ammonium sulfate suspension. E. coli fermentation broth (42 U ADA/mL, 2 L) was centrifuged and the cell pellet was collected and washed with 1 L 100 mM phosphate buffer pH 7.5. The cells were again centrifuged and resuspended in 2 L of the above buffer plus 20% glycerol. The cells were passed once through a microfluidizer. Cell debris was removed by centrifugation and the resulting supernatant was concentrated by ultrafiltration through a 30,000 MWCO cassette. The enzyme was concentrated to a final titer of 390 U/ml. Ammonium sulfate was added to a 50% saturation, the resulting precipitate was collected by centrifugation and re-suspended in 100 ml deionized water. The final titer of the slurry was 740 U/ml; the protein content of the slurry was ˜75 mg/ml.

B1: Recombinant human immobilized ADA: Human adenosine deaminase (SEQ ID NO: 1) expressed in E. coli, immobilized on glutaraldehyde-activated IPS-400 support (protein, listed as Homo sapiens)
chain: MAQTPAFDKPKVELHVHLDGSIKPETILYYGRRRGIALPANTAEGLLNVIGMDKPLTLPDFLAKFDYYMPAIAGCREAIKRIAYEFVEMKAKEGVVYVEVRYSPHLLANSKVEPIPWNQAEGDLTPDEVVALVGQGLQEGERDFGVKARSILCCMRHQPNWSPKVVELCKKYQQQTVVAIDLAGDETIPGSSLLPGHVQAYQEAVKSGIHRTVHAGEVGSAEVVKEAVDILKTERLGHGYHTLEDQALYNRLRQENMHFEICPWSSYLTGAWKPDTEHAVIRLKNDQANYSLNTDDPLIFKSTLDTDYQMTKRDMGFTEEEFKRLNINAAKSSFLPEDEKRELLDLLYKAYGMPPSASAGQNL
modifications: immobilized on glutaraldehyde-activated IPS-400 support; (1)..(363) gi 14043373
Q: With B1 as the molecule, how does the “Enzymatic activity of immobilized enzyme” value [1] read?
A: ~100 U/g

Q: What about the “Conversion of ddA to ddI” value ([2]; 30 °C, 4.5 hours) of the same molecule?
A: 100%

Q: And the “Conversion of ddA to ddI” value ([2]; 40 °C, 1.5 hours)?
A: 100%

Q: What about the “Stability of the enzyme in the ddA to ddI reaction” value ([2]; compared with microbial enzymes) of the same molecule?
A: significantly more stable than microbial enzymes
